Here are results for eight molecules from patent publication US20180155451A1 (published 2018).

One test deals with T1, FcγRIa (human, UniProt P12314 16-292).
T1 construct: extracellular domain; also called FcgRI; 1a
Kind of test: SPR, captured antibody; relative to GpH7-A5/GpH7-B3/GpL16-k0. (SPR reads the build-up and loss of mass on a sensor chip optically.)

A further test deals with T2, FcγRIIb (human, UniProt P31994 43-217).
T2 construct: extracellular domain; also called FcgRIIb; 2b
T2 sequence (looked up): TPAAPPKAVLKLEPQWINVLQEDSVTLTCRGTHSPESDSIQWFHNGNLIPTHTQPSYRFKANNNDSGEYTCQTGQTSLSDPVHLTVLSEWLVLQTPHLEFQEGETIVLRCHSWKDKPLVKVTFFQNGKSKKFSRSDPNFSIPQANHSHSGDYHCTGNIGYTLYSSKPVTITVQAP
The test is described as above.

Test [1] concerns the target T3, FcγRIIIa extracellular domain with C-terminal His tag (human, UniProt P08637 17-208).
T3 construct: extracellular domain; also called 3a; FcgRIIIa
Description: SPR, relative to GpH7-A5/GpH7-B3/GpL16-k0. On the procedure:
(§1) The heterodimerized antibodies He Abs in which one of the H chains was introduced with an alteration were assayed for their binding activities to each activating FcγR and inhibitory FcγR according to the method described in Example 4. […] The activating FcγRs in FIGS. 26, 27, 28, and 29 are FcγRIa, FcγRIIa (R), FcγRIIa (H), and FcγRIIIa, respectively.
(§2) Analysis of interaction between objective antibody and the FcγR was carried out using Biacore T100 (GE Healthcare). HBS-EP+ (GE Healthcare) was used as the running buffer, and the measurement temperature was set to 25° C. Chips produced by immobilizing the antigen peptide by the amine coupling method to a Series S Sencor Chip CM5 (GE Healthcare), or alternatively, chips produced by allowing preliminarily biotinylated antigen peptides to interact with and immobilize onto a Series S Sensor Chip SA (certified) (GE Healthcare) were used. Antibodies of interest were captured onto an antigen peptide-immobilized chip, and allowed to interact to each FcγR diluted with running buffer. To regenerate and repeatedly use the chip, the antibodies captured on the chip were washed off by reacting 10 mM glycine-HCl, pH 1.5.

For test [2], the target named is T4, FcγRIIb extracellular domain with C-terminal His tag (human, UniProt P31994 43-217).
T4 construct: extracellular domain; also called 2b; FcgRIIb
T4 sequence (looked up): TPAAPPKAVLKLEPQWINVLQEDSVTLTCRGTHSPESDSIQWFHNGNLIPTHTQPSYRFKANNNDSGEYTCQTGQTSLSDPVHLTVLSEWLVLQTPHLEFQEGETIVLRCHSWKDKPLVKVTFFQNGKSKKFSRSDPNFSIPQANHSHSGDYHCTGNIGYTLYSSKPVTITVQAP
Description: SPR, relative to GpH7-A5/GpH7-B3/GpL16-k0. The protocol:
as §1, §2

T1 sequence (P12314 16-292): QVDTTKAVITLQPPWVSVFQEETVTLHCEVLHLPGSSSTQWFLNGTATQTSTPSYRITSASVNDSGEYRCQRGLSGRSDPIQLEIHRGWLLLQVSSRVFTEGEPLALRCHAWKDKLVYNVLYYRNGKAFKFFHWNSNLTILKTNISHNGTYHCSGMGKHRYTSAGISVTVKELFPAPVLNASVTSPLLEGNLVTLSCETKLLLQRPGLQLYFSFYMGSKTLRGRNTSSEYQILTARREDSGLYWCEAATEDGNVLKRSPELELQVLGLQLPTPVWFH
T3 sequence (P08637 17-208): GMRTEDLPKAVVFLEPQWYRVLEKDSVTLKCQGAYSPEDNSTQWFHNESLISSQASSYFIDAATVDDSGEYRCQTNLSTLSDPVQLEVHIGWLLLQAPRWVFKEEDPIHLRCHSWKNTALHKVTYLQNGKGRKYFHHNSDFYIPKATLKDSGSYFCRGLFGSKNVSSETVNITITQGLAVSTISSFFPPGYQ

B1: GpH7-A5/GpH7-B3 variant (S267_16H)/GpL16-k0 (antibody, human IgG1, kappa)
heavy 1: not shown
heavy 2: not shown
light: DIVMTQSPLSLPVTPGEPASISCQASESLVHSNRNTYLHWYLQKPGQSPQLLIYKVSNRFSGVPDRFSGSGSGTDFTLKISRVEAEDVGVYYCSQNTHVPPTFGQGTKVEIERTVAAPSVFIFPPSDEQLKSGTASVVCLLNNFYPREAKVQWKVDNALQSGNSQESVTEQDSKDSTYSLSSTLTLSKADYEKHKVYACEVTHQGLSSPVTKSFNRGEC
notes: IgG1 heterodimer, mutation in the GpH7-B3 chain only; also called He Ab
Regarding B1, the He/Con_1a with FcγRIa is 100 relative, HeCon Ab = 100. For the same molecule, in the test with FcγRIIb, the He/Con_2b was 65.9 relative, HeCon Ab = 100.

B2: GpH7-A5/GpH7-B3 variant A330_07I/GpL16-k0 (antibody, human IgG1, kappa)
heavy 1: not shown
heavy 2: not shown
light: DIVMTQSPLSLPVTPGEPASISCQASESLVHSNRNTYLHWYLQKPGQSPQLLIYKVSNRFSGVPDRFSGSGSGTDFTLKISRVEAEDVGVYYCSQNTHVPPTFGQGTKVEIERTVAAPSVFIFPPSDEQLKSGTASVVCLLNNFYPREAKVQWKVDNALQSGNSQESVTEQDSKDSTYSLSSTLTLSKADYEKHKVYACEVTHQGLSSPVTKSFNRGEC
notes: He Ab: alteration in one H chain only; also called He Ab
As for B2, the He/Con_3a in test [1] stood at 103 control=100. This molecule also gave a He/Con_2b in test [2] of 67.1 control=100.

B3: GpH7-A5/GpH7-B3 variant A330_08L/GpL16-k0 (antibody, human IgG1, kappa)
heavy 1: not shown
heavy 2: not shown
light: DIVMTQSPLSLPVTPGEPASISCQASESLVHSNRNTYLHWYLQKPGQSPQLLIYKVSNRFSGVPDRFSGSGSGTDFTLKISRVEAEDVGVYYCSQNTHVPPTFGQGTKVEIERTVAAPSVFIFPPSDEQLKSGTASVVCLLNNFYPREAKVQWKVDNALQSGNSQESVTEQDSKDSTYSLSSTLTLSKADYEKHKVYACEVTHQGLSSPVTKSFNRGEC
notes: as for B2
B3 yielded a He/Con_3a in test [1] of 124 control=100. Also, in test [2], the He/Con_2b is 70.5 control=100.

B4: GpH7-A5/GpH7-B3 variant A330_06M/GpL16-k0 (antibody, human IgG1, kappa)
heavy 1: not shown
heavy 2: not shown
light: DIVMTQSPLSLPVTPGEPASISCQASESLVHSNRNTYLHWYLQKPGQSPQLLIYKVSNRFSGVPDRFSGSGSGTDFTLKISRVEAEDVGVYYCSQNTHVPPTFGQGTKVEIERTVAAPSVFIFPPSDEQLKSGTASVVCLLNNFYPREAKVQWKVDNALQSGNSQESVTEQDSKDSTYSLSSTLTLSKADYEKHKVYACEVTHQGLSSPVTKSFNRGEC
notes: as for B2
In the case of B4, in test [1], the He/Con_3a is 142 control=100. For the same molecule, in test [2], the He/Con_2b was 80.5 control=100.

B5: GpH7-A5/GpH7-B3 variant (V266_19Q)/GpL16-k0 (antibody, human IgG1, kappa)
heavy 1: not shown
heavy 2: not shown
light: DIVMTQSPLSLPVTPGEPASISCQASESLVHSNRNTYLHWYLQKPGQSPQLLIYKVSNRFSGVPDRFSGSGSGTDFTLKISRVEAEDVGVYYCSQNTHVPPTFGQGTKVEIERTVAAPSVFIFPPSDEQLKSGTASVVCLLNNFYPREAKVQWKVDNALQSGNSQESVTEQDSKDSTYSLSSTLTLSKADYEKHKVYACEVTHQGLSSPVTKSFNRGEC
notes: as for B1
Take B5: the He/Con_1a in the test with FcγRIa is 100 relative, HeCon Ab = 100. Moreover, the He/Con_2b with FcγRIIb was 89.2 relative, HeCon Ab = 100.

B6: GpH7-A5/GpH7-B3 variant A330_04F/GpL16-k0 (antibody, human IgG1, kappa)
heavy 1: not shown
heavy 2: not shown
light: DIVMTQSPLSLPVTPGEPASISCQASESLVHSNRNTYLHWYLQKPGQSPQLLIYKVSNRFSGVPDRFSGSGSGTDFTLKISRVEAEDVGVYYCSQNTHVPPTFGQGTKVEIERTVAAPSVFIFPPSDEQLKSGTASVVCLLNNFYPREAKVQWKVDNALQSGNSQESVTEQDSKDSTYSLSSTLTLSKADYEKHKVYACEVTHQGLSSPVTKSFNRGEC
notes: as for B2
The molecule B6 showed a He/Con_3a in test [1] of 147 control=100. The molecule further came in with a He/Con_2b in test [2] of 92.8 control=100.

B7: GpH7-A5/GpH7-B3 variant (S267_18N)/GpL16-k0 (antibody, human IgG1, kappa)
heavy 1: not shown
heavy 2: not shown
light: DIVMTQSPLSLPVTPGEPASISCQASESLVHSNRNTYLHWYLQKPGQSPQLLIYKVSNRFSGVPDRFSGSGSGTDFTLKISRVEAEDVGVYYCSQNTHVPPTFGQGTKVEIERTVAAPSVFIFPPSDEQLKSGTASVVCLLNNFYPREAKVQWKVDNALQSGNSQESVTEQDSKDSTYSLSSTLTLSKADYEKHKVYACEVTHQGLSSPVTKSFNRGEC
notes: as for B1
As to B7, the He/Con_1a with FcγRIa was 102 relative, HeCon Ab = 100. Besides, the He/Con_2b with FcγRIIb is 47.7 relative, HeCon Ab = 100.

B8: GpH7-A5/GpH7-B3 variant A330_03V/GpL16-k0 (antibody, human IgG1, kappa)
heavy 1: not shown
heavy 2: not shown
light: DIVMTQSPLSLPVTPGEPASISCQASESLVHSNRNTYLHWYLQKPGQSPQLLIYKVSNRFSGVPDRFSGSGSGTDFTLKISRVEAEDVGVYYCSQNTHVPPTFGQGTKVEIERTVAAPSVFIFPPSDEQLKSGTASVVCLLNNFYPREAKVQWKVDNALQSGNSQESVTEQDSKDSTYSLSSTLTLSKADYEKHKVYACEVTHQGLSSPVTKSFNRGEC
notes: as for B2
Consider B8, for which, in test [1], the He/Con_3a was determined as 101 control=100. This molecule yielded a He/Con_2b in test [2] of 52.4 control=100.
